Among the data in publication PMC5377317, “Generation of Aptamers from A Primer-Free Randomized ssDNA Library Using Magnetic-Assisted Rapid Aptamer Selection” are Kd values, retold here.

This data set deals with T1, C-reactive protein (CRP) (human, UniProt P02741 19-224).
T1 sequence: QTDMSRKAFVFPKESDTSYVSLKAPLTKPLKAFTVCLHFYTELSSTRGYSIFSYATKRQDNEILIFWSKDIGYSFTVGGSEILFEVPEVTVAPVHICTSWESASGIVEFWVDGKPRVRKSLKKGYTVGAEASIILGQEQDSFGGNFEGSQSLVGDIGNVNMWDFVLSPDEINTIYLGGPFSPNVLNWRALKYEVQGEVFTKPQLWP
In words: magnetic bead pull-down with q-PCR, saturation fit; apparent Kd; 2 mM MgCl2; CRP-MNPs; BD buffer: 50 mM NaH2PO4 pH 8.0, 150 mM NaCl, 5 mM KCl, 2 mM MgCl2, 0.05% Tween-20; room temperature, 30 min; aptamer 1.5625-200 nM. As to conditions: protein: commercial; tags: biotinylated (EZ-Link Sulfo-NHS-Biotin), on streptavidin magnetic nanoparticles; chain copies: 5; single strand, small loop predicted by Mfold (dG -2.93 kcal/mol).

Consider GTTGACGGGCGATTGGTCTT (ssDNA) [PF20N-RO-MARAS-84-1], for which the Kd is 23.6 ± 0.82 nM.
